{
  "source": "paper PMC5057313",
  "biological_target": "Arabidopsis ferredoxin : thioredoxin reductase catalytic subunit (AtFTRc), prey in pGADT7 (Arabidopsis thaliana) (UniProt Q9SJ89)",
  "sequence (Q9SJ89 whole entry)": "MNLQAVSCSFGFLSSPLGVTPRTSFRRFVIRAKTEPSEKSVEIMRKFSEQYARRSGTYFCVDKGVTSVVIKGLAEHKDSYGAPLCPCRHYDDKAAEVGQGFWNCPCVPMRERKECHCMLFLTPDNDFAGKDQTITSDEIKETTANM",
  "data": [
    {"substance": "MjTTL5 (transthyretin-like protein 5 of Meloidogyne javanica), bait in pGBKT7 (natural protein)", "values": [
      {"measurement": "H2O2 consumption of wild-type Arabidopsis protein with MjTTL5 against the MjTTL5-free treatment (only 1.8-fold in the AtFTRc mutants; Fig. S16c)", "value": 2.5, "unit": "fold"}
    ]}
  ]
}
